Data from the supplement of paper PMC10567573.

B1: ZNF649 (parent)
chain: EHERAHRGEKPHGCSLCGKAFYKR

Variants of: B1
Test: protein stability index of a GFP-peptide fusion (GPS, HEK-293T) (PSI 1-6); higher = more stable
Conditions: c terminus: a fixed tail appended
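Note: lentivirally expressed fusions sorted by FACS into six bins by GFP to DsRed ratio, PSI derived from sequencing read proportions per bin multiplied by bin number.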

Question: For EHERAHCGEKPHGCSLCGKAFYKR, which protein stability index is on record?
Answer: 1.65

Question: With EHERAHEGEKPHGCSLCGKAFYKR as the variant, how does the protein stability index read?
Answer: 1.95

Question: Which protein stability index does the source give for EHERAHWGEKPHGCSLCGKAFYKR here?
Answer: 2.02

Question: Which protein stability index does the source give for EHERAHDGEKPHGCSLCGKAFYKR here?
Answer: 1.98

Question: For EHERAHYGEKPHGCSLCGKAFYKR, which protein stability index is on record?
Answer: 1.82

Question: With EHERAHSGEKPHGCSLCGKAFYKR as the variant, how does the protein stability index read?
Answer: 2.23

Question: Which protein stability index does the source give for EHERAHQGEKPHGCSLCGKAFYKR here?
Answer: 2.02

Question: With EHERAHGGEKPHGCSLCGKAFYKR as the variant, how does the protein stability index read?
Answer: 1.61

Question: With EHERAHLGEKPHGCSLCGKAFYKR as the variant, how does the protein stability index read?
Answer: 1.48

Question: Which protein stability index does the source give for EHERAHNGEKPHGCSLCGKAFYKR here?
Answer: 3.32

Question: With EHERAHHGEKPHGCSLCGKAFYKR as the variant, how does the protein stability index read?
Answer: 2.31

Question: For EHERAHMGEKPHGCSLCGKAFYKR, which protein stability index is on record?
Answer: 2.72

Question: With EHERAHKGEKPHGCSLCGKAFYKR as the variant, how does the protein stability index read?
Answer: 2.34

Question: Which protein stability index does the source give for EHERAHPGEKPHGCSLCGKAFYKR here?
Answer: 2.63

Question: Which protein stability index does the source give for EHERAHFGEKPHGCSLCGKAFYKR here?
Answer: 1.32

Question: Which protein stability index does the source give for EHERAHIGEKPHGCSLCGKAFYKR here?
Answer: 1.69

Question: With EHERAIRGEKPHGCSLCGKAFYKR as the variant, how does the protein stability index read?
Answer: 1.54

Question: For EHERAVRGEKPHGCSLCGKAFYKR, which protein stability index is on record?
Answer: 1.58

Question: Which protein stability index does the source give for EHERAYRGEKPHGCSLCGKAFYKR here?
Answer: 1.61

Question: For EHERAERGEKPHGCSLCGKAFYKR, which protein stability index is on record?
Answer: 1.06

Question: With EHERAMRGEKPHGCSLCGKAFYKR as the variant, how does the protein stability index read?
Answer: 2.27

Question: For EHERAGRGEKPHGCSLCGKAFYKR, which protein stability index is on record?
Answer: 1.21

Question: Which protein stability index does the source give for EHERALRGEKPHGCSLCGKAFYKR here?
Answer: 1.61

Question: For EHERADRGEKPHGCSLCGKAFYKR, which protein stability index is on record?
Answer: 2.01

Question: With EHERAQRGEKPHGCSLCGKAFYKR as the variant, how does the protein stability index read?
Answer: 1.31

Question: With EHERAFRGEKPHGCSLCGKAFYKR as the variant, how does the protein stability index read?
Answer: 2.04

Question: Which protein stability index does the source give for EHERANRGEKPHGCSLCGKAFYKR here?
Answer: 2.06

Question: For EHERAWRGEKPHGCSLCGKAFYKR, which protein stability index is on record?
Answer: 1.78

Question: For EHERAKRGEKPHGCSLCGKAFYKR, which protein stability index is on record?
Answer: 1.04

Question: With EHHRAHRGEKPHGCSLCGKAFYKR as the variant, how does the protein stability index read?
Answer: 2.72

Question: Which protein stability index does the source give for EHTRAHRGEKPHGCSLCGKAFYKR here?
Answer: 1.89

Question: For EHYRAHRGEKPHGCSLCGKAFYKR, which protein stability index is on record?
Answer: 1.95

Question: For EHGRAHRGEKPHGCSLCGKAFYKR, which protein stability index is on record?
Answer: 1.81

Question: For EHLRAHRGEKPHGCSLCGKAFYKR, which protein stability index is on record?
Answer: 1.92

Question: For EHMRAHRGEKPHGCSLCGKAFYKR, which protein stability index is on record?
Answer: 1.61

Question: For EHVRAHRGEKPHGCSLCGKAFYKR, which protein stability index is on record?
Answer: 3.49

Question: With EHRRAHRGEKPHGCSLCGKAFYKR as the variant, how does the protein stability index read?
Answer: 1.96

Question: With EHNRAHRGEKPHGCSLCGKAFYKR as the variant, how does the protein stability index read?
Answer: 2.47

Question: For EHFRAHRGEKPHGCSLCGKAFYKR, which protein stability index is on record?
Answer: 2.67

Question: With EHIRAHRGEKPHGCSLCGKAFYKR as the variant, how does the protein stability index read?
Answer: 1.78

Question: For EHERAHRIEKPHGCSLCGKAFYKR, which protein stability index is on record?
Answer: 2.01

Question: With EHERAHRMEKPHGCSLCGKAFYKR as the variant, how does the protein stability index read?
Answer: 1.8

Question: For EHERAHRNEKPHGCSLCGKAFYKR, which protein stability index is on record?
Answer: 2.12

Question: Which protein stability index does the source give for EHERAHRFEKPHGCSLCGKAFYKR here?
Answer: 2.22

Question: With EHERAHRTEKPHGCSLCGKAFYKR as the variant, how does the protein stability index read?
Answer: 1.91

Question: Which protein stability index does the source give for EHERAHRPEKPHGCSLCGKAFYKR here?
Answer: 2.78

Question: With EHERAHRHEKPHGCSLCGKAFYKR as the variant, how does the protein stability index read?
Answer: 2.83

Question: For EHERAHRYEKPHGCSLCGKAFYKR, which protein stability index is on record?
Answer: 3.18

Question: For EHERAHRKEKPHGCSLCGKAFYKR, which protein stability index is on record?
Answer: 2.27

Question: Which protein stability index does the source give for EHERAHRDEKPHGCSLCGKAFYKR here?
Answer: 1.93

Question: Which protein stability index does the source give for EHERAHRSEKPHGCSLCGKAFYKR here?
Answer: 1.99

Question: For EHERAHRQEKPHGCSLCGKAFYKR, which protein stability index is on record?
Answer: 3.17

Question: For EHERAHRWEKPHGCSLCGKAFYKR, which protein stability index is on record?
Answer: 2.21

Question: With EHERAHREEKPHGCSLCGKAFYKR as the variant, how does the protein stability index read?
Answer: 2.27

Question: With EHERAHRGEKPHMCSLCGKAFYKR as the variant, how does the protein stability index read?
Answer: 3.08

Question: With EHERAHRGEKPHTCSLCGKAFYKR as the variant, how does the protein stability index read?
Answer: 2.42

Question: With EHERAHRGEKPHICSLCGKAFYKR as the variant, how does the protein stability index read?
Answer: 3.07

Question: For EHERAHRGEKPHPCSLCGKAFYKR, which protein stability index is on record?
Answer: 1.88

Question: Which protein stability index does the source give for EHERAHRGEKPHACSLCGKAFYKR here?
Answer: 2.43

Question: For EHERAHRGEKPHLCSLCGKAFYKR, which protein stability index is on record?
Answer: 2.2

Question: With EHERAHRGEKPHFCSLCGKAFYKR as the variant, how does the protein stability index read?
Answer: 2.72

Question: Which protein stability index does the source give for EHERAHRGEKPHVCSLCGKAFYKR here?
Answer: 2.03

Question: Which protein stability index does the source give for EHERAHRGEKPHCCSLCGKAFYKR here?
Answer: 1.9

Question: For EHERAHRGEKPHYCSLCGKAFYKR, which protein stability index is on record?
Answer: 3.31

Question: For EHERAHRGEKPHECSLCGKAFYKR, which protein stability index is on record?
Answer: 2.48

Question: For EHERAHRGEKPHSCSLCGKAFYKR, which protein stability index is on record?
Answer: 1.95

Question: With EHERAHRGEKPHNCSLCGKAFYKR as the variant, how does the protein stability index read?
Answer: 2.89

Question: Which protein stability index does the source give for EHERAHRGEKPHGCSDCGKAFYKR here?
Answer: 3.82

Question: With EHERAHRGEKPHGCSACGKAFYKR as the variant, how does the protein stability index read?
Answer: 3.17

Question: Which protein stability index does the source give for EHERAHRGEKPHGCSECGKAFYKR here?
Answer: 3.8

Question: For EHERAHRGEKPHGCSCCGKAFYKR, which protein stability index is on record?
Answer: 3.54

Question: With EHERAHRGEKPHGCSFCGKAFYKR as the variant, how does the protein stability index read?
Answer: 1.83

Question: Which protein stability index does the source give for EHERAHRGEDPHGCSLCGKAFYKR here?
Answer: 2.27

Question: With EHERAHRGEFPHGCSLCGKAFYKR as the variant, how does the protein stability index read?
Answer: 2.98

Question: For EHERAHRGEWPHGCSLCGKAFYKR, which protein stability index is on record?
Answer: 1.67

Question: Which protein stability index does the source give for EHERAHRGEEPHGCSLCGKAFYKR here?
Answer: 2.87

Question: With EHERAHRGEAPHGCSLCGKAFYKR as the variant, how does the protein stability index read?
Answer: 2.12

Question: With EHERAHRGENPHGCSLCGKAFYKR as the variant, how does the protein stability index read?
Answer: 1.19

Question: Which protein stability index does the source give for EHERAHRGERPHGCSLCGKAFYKR here?
Answer: 1.01

Question: For EHERAHRGEQPHGCSLCGKAFYKR, which protein stability index is on record?
Answer: 3.07

Question: For EHERAHRGEYPHGCSLCGKAFYKR, which protein stability index is on record?
Answer: 1.7

Question: For EHERAHRGESPHGCSLCGKAFYKR, which protein stability index is on record?
Answer: 1.66

Question: For EHERAHRGEMPHGCSLCGKAFYKR, which protein stability index is on record?
Answer: 2.28

Question: Which protein stability index does the source give for EHERAHRGEVPHGCSLCGKAFYKR here?
Answer: 1.76

Question: With EHERAHRGEIPHGCSLCGKAFYKR as the variant, how does the protein stability index read?
Answer: 1.69

Question: With EHERAHRGETPHGCSLCGKAFYKR as the variant, how does the protein stability index read?
Answer: 3.02

Question: With EHEGAHRGEKPHGCSLCGKAFYKR as the variant, how does the protein stability index read?
Answer: 2.55

Question: Which protein stability index does the source give for EHEEAHRGEKPHGCSLCGKAFYKR here?
Answer: 2.14

Question: With EHENAHRGEKPHGCSLCGKAFYKR as the variant, how does the protein stability index read?
Answer: 2.23

Question: Which protein stability index does the source give for EHEIAHRGEKPHGCSLCGKAFYKR here?
Answer: 1.91

Question: For EHEYAHRGEKPHGCSLCGKAFYKR, which protein stability index is on record?
Answer: 1.5

Question: Which protein stability index does the source give for EHEHAHRGEKPHGCSLCGKAFYKR here?
Answer: 2.05

Question: With EHECAHRGEKPHGCSLCGKAFYKR as the variant, how does the protein stability index read?
Answer: 3.31

Question: Which protein stability index does the source give for EHEMAHRGEKPHGCSLCGKAFYKR here?
Answer: 2.08
